Measurements reported in patent US20250355001A1 (GTINVENT, published 2025).
Where two headings read alike, the source gives them in different places. Where no end group is shown, it is not given here. The star is where a group is joined. Biotin = O=C1N[C@H]2[C@H](CS[C@H]2CCCCC(=O)*)N1

Legend:
[1] = molecular target: T1, full length human tau protein 2N4R (hT40) (human, UniProt P10636 1-758); experiment: SPR, summary table
T1 construct: recombinant; also called T441
Protocol: The capture antibody was diluted 1/100 in 10 mM Sodium acetate buffer pH 5.0 and passed over the activated chip surface for a period of at least 420 s. Final ligand immobilisation levels over 12,000 RU were deemed to be satisfactory.
The scAb to be tested was added only to flow cell 2 so that flow cell 1 could act as a control to subtract any interaction with the analyte and the chip surface. […] The multi-cycle protocol was as follows-Three start-up cycles composed of an initial capture, to the desired level, of the scAb to be tested was performed followed by a 30 s injection of glycine buffer pH 2.0 after each cycle to regenerate the chip surface. […] The target was added for a 120 s association period and 420 s dissociation period followed by another regeneration, 30 s injection of glycine buffer pH 2.0 in between each cycle.
The single cycle kinetics protocol was similar and utilised the same level of scAb capture. […] In single cycle kinetics the regeneration step was performed only after the final analyte concentration was added. Binding responses were analysed in Biacore X100 evaluation software and data fitted to a 1:1 binding model to obtain kinetic and affinity characterisation.
Target sequence in this assay (P10636 other isoform, or with tags, fused parts or gaps limits assumed): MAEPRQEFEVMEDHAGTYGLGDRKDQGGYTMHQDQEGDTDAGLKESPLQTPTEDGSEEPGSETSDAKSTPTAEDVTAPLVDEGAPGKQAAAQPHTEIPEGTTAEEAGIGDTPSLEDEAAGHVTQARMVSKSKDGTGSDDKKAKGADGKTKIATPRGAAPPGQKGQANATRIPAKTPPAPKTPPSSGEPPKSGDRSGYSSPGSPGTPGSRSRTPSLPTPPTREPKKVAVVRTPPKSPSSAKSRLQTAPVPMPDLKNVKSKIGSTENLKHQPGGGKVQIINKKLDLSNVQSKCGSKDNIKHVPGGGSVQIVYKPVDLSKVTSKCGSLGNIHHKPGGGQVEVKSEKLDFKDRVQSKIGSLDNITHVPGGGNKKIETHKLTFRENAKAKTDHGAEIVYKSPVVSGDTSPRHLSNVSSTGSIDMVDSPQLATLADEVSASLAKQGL

[2] = molecular target: T1, full length human tau protein 2N4R …; experiment: SPR, scAb captured, tau analyte
Procedure, shortened: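 scAb captured on flow cell 2 of an antibody-coated chip, flow cell 1 as reference; tau analyte injected 120 s association, 420 s dissociation, glycine pH 2.0 regeneration, in multi-cycle or single-cycle kinetics format. Responses fitted to a 1:1 binding model for kinetics and affinity.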
Target sequence in this assay (P10636 other isoform, or with tags, fused parts or gaps limits assumed): as above

[3] = molecular target: T1, full length human tau protein 2N4R …; experiment: hT40 ELISA
Target sequence in this assay (P10636 other isoform, or with tags, fused parts or gaps limits assumed): as above

[4] = molecular target: T2, tau parent peptide 319-331 (TSKCGSLGNIHHK); experiment: ELISA on biotinylated peptide over streptavidin
T2 peptide: Biotin-TSKCGSLGNIHHK
Protocol: Briefly, 5 μg/ml streptavidin (Thermo Fisher) was adsorbed to Nunc 96-well MaxiSorp plates and following incubation at 37° C. for 1 h, the plates were washed as normal and blocked with 2% MPBS. N-terminally biotinylated peptides (Prolmmune Ltd) were added to the plates and incubated for 1 h at 37° C. Subsequently, test scAbs at starting concentrations of 100-500 nM was added and double diluted across the plate for each peptide and incubated for 1 h at 37° C. Rest of the ELISA was conducted as described above and the plates were read at absorbance 450 nm. Immunoreactivity of the scAb of interest was quantified as the % of scAb was bound for each peptide at a chosen concentration (FIG. 15-20).

[5] = molecular target: T1, full length human tau protein 2N4R …; experiment: hT40 ELISA; remark: listed apart in the source
Target sequence in this assay (P10636 other isoform, or with tags, fused parts or gaps limits assumed): as above

[6] = molecular target: T1, full length human tau protein 2N4R …; experiment: hT40 ELISA; remark: listed apart in the source
Protocol: (§1) A series of binding ELISA was performed using various truncated versions of the tau protein and 13mer peptide libraries spanning the entire hT40 molecule for mapping the epitopes of anti-tau scAbs (Full list of protein antigens used is given in Table 14). In general, ELISA plates were coated with 1 μg/ml hT40 or dGA or dGAE or other truncated versions of the protein and in the case of biotinylated peptides, plates were coated with 5 μg/ml Streptavidin followed by 1 μg/ml biotinylated peptide. The plates were blocked with 2% MPBS and scAb samples added at desired starting concentrations and double diluted across the plate. Binding was detected using anti-Human C Kappa HRP conjugated secondary antibody and the resulting immunoreaction was developed and absorbance values measured as described above.

[7] = molecular target: T1, full length human tau protein 2N4R …; experiment: hT40 ELISA; remark: listed apart in the source
[8] = molecular target: T3, tau fragment 369-390 (human); experiment: direct ELISA
T3 peptide: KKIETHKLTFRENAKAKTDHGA

[9] = molecular target: T4, tau fragment 369-391 (human); experiment: direct ELISA
T4 peptide: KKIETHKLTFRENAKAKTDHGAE

[10] = molecular target: T5, dGAE (tau 297-391) (human, UniProt P10636 614-708); experiment: direct ELISA
T5 construct: monomer; also called dGAE95

[11] = molecular target: T6, aggregated dGAE (human, UniProt P10636 614-708, limits assumed); experiment: capture ELISA, mAb coated at 1 µg/ml, S1G2 scAb detection
T6 construct: dGAE aggregated in vitro with DTT, 700 rpm, 37 C, 24 h; also called dGAE aggregates; dGAE agg

[12] = molecular target: T1, full length human tau protein 2N4R …; experiment: SPR, hT40 immobilised, mAb analyte
Protocol: For anti-tau mAb SPR measurements, htau40 was conjugated to the surface of a CM5 sensor chip using amine coupling as explained previously. Briefly, 2 μg/mL htau40 in 10 mM Sodium acetate buffer (pH 4.0) was passed over the activated chip surface (EDC/NHS) in flow cell 2 for a period for 45 s followed by blocking with 1 M ethanolamine-HCl PH 8.5. Flow cell 1 was set up as reference control and blocked simultaneously. Final immobilisation level of htau40 (Rmax) was approximately 250 RU. […] The mAb was added for a 120 s association period and 600 s dissociation period followed by a regeneration cycle of 30 s injection of glycine buffer pH 1.5 in between each cycle. Binding responses were analysed in Biacore X100 evaluation software and data fitted to a 1:1 binding model to obtain kinetic and affinity characterisation.
Target sequence in this assay (P10636 other isoform, or with tags, fused parts or gaps limits assumed): as the sequence (P10636 other isoform, or with tags, fused parts or gaps limits assumed) above

[13] = molecular target: T7, mouse tau (mouse, UniProt P10637 2-733); experiment: Western blot of brain homogenates
T7 construct: endogenous protein of mouse brain or plasma; also called endogenous mouse tau
T7 sequence (P10637 other isoform, or with tags, fused parts or gaps limits assumed): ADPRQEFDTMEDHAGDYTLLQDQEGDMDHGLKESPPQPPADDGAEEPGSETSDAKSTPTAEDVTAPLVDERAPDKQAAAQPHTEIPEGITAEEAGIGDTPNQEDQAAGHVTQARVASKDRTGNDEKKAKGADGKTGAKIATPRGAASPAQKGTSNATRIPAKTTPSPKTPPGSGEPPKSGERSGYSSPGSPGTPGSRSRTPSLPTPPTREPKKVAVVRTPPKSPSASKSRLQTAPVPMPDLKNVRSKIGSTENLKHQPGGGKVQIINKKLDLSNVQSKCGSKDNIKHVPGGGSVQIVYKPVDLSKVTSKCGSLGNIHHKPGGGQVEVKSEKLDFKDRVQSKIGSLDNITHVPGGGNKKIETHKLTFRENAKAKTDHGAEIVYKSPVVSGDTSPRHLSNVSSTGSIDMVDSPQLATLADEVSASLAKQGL

[14] = molecular target: T8, human tau fragment 296-390 of Line 1 mice (human, UniProt P10636 613-707); experiment: Western blot of brain homogenates
T8 construct: also called L1 fragment; 10-kDa tau fragment

[15] = molecular target: T9, human tau (hT40) with P301S and G335D of Line 66 mice (human, UniProt P10636 1-758); experiment: Western blot
T9 construct: transgene product in brain homogenate or plasma; also called L66 human tau
T9 sequence (P10636 other isoform, or with tags, fused parts or gaps P301S G335D P301S G335D limits assumed): as the sequence (P10636 other isoform, or with tags, fused parts or gaps limits assumed) above, with P301S, G335D counted along it

[16] = molecular target: T1, full length human tau protein 2N4R …; experiment: ELISA
Protocol: as §1

[17] = molecular target: tau fragment 348-441 (human, UniProt P10636 665-758); experiment: direct ELISA
Chain of tau fragment 348-441 (P10636 665-758): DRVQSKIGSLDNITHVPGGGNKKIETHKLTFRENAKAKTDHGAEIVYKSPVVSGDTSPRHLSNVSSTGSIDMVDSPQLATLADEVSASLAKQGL

[18] = molecular target: T10, tau fragment 1-49 (human); experiment: direct ELISA
T10 construct: also called Tau 1-49
T10 peptide: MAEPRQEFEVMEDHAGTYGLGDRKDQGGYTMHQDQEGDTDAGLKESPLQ
Protocol: as §1

[19] = molecular target: tau fragment 1-111 (human, UniProt P10636 1-111); experiment: direct ELISA
Protocol: as §1

[20] = molecular target: tau fragment 337-368 (human); experiment: direct ELISA
Chain of tau fragment 337-368 (human) (peptide, as listed by the source): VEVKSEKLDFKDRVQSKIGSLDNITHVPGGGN

[21] = molecular target: tau fragment 275-305 (human); experiment: direct ELISA
Chain of tau fragment 275-305 (human) (peptide, as listed by the source): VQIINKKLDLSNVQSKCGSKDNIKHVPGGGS

[22] = molecular target: T5, dGAE (tau 297-391); experiment: ELISA
Protocol: as §1

[23] = molecular target: dGA (tau 297-390) (human, UniProt P10636 614-707); experiment: ELISA
Protocol: as §1

B1: CE2 scAb (scFv, not shown: small tags and cut ends)
scFv: QVQLQESGPSLVKPSQTLSLTCTVSGFSLTNYPVGWVRQAPGKALEWIGNIENDGSANYASALKSRLSITRDTSKNQVSLSLSSATTEDTAVYYCGREFGGSDGYTYFVDIDYWGPGLLVTVSSEGKSSGASGESKVDDQAVLTQPSSVSKSLGQSVSITCSGSSSNVGYGNYVSWFQQVPGSAPKILIYGATSRASGVPDRFSGSRSGNTATLTITSLQAEDEADYYCASYDGSSSGVFGSGTRLTVLG
notes: scAb
Kd [1]: 5.03 nM | Kd [2]: 5.03 nM | koff [2]: 0.00108 s⁻¹ | kon [2]: 214000 M⁻¹ s⁻¹ | EC50 (read off the curve) [3]: ~0.1 µg/mL | binding result [4]: binds

B2: 412G11 (scFv)
scAb: QVRLQESGPSLVKPSQTLSLTCTVSGFSLTSYALGWVRQAPGRAPEWIGNIWRGGRIEYNPALKSRLSITRDTSKSQVSLSLSSVTTEDTAVYYCSRSGGDWGPGLLVTVSSEGKSSGASGESKVDDQAVLTQPSSVSGSLGQRVSITCSGSSSNVGYGNYVGWYQQVPGSAPKLLIYGATSRASGVPDRFSGSRSENTATLTISSLQAEDEADYYCASYDRSESVVFGSGTRLTVLG
EC50 (read off the curve) [5]: ~2 µg/mL | EC50 (read off the curve) [6]: ~2 µg/mL | EC50 (read off the curve) [7]: ~5 µg/mL

B3: S1F4 scAb (scFv, not shown: small tags and cut ends)
scFv: QVQLQESGPSLVKPSQTLSLTCTVSGFSLSSNSVGWVRQAPGKAPEWVAGIDTDGEEGYNPALNSRLSITRDTSKSQVSLSLSSVTSEDTAVYYCVRSYRADGLAYGYVQAIDYWGPGLLLTISSEGKSSGASGESKVDDQAVVTQPSSVSGSLGQRVSITCSGSFIGISSVGWFQQLPGSGLRTVIVASDGRPSGVPDRFSNSKSGNTATLTISSLQAEDEADYFCGSSDRTQYTGVFGSGTRLTVLG
notes: scAb
EC50 (read off the curve) [8]: ~2 µg/mL | binding result [9]: binds | EC50 (read off the curve) [3]: ~0.05 µg/mL | EC50 (read off the curve) [10]: ~0.3 µg/mL

B4: CB7 mAb (antibody, mouse IgG2a, V domains shown)
VH: QVQLQESGPSLVKPSQTLSLTCTVSGFSLTNYRVGWVRQAPGKALEWVSNIRSGGTTWYNPALKSRLSITADTSKSQVSLSLSSVTTEDTAVYYCARDSSGDLYAYDYWGPGLLVTVSS
VL: QAVLTQPSSVSRSLGQSVSMTCSGSSSNVGYGNYMAWFQQVPGSAPKLLIYGATSRASGVPDRFSGSRSGNTATLTISSLQAEDEADYYCASYDSTSGGVFGSGTRLTVLG
notes: sheep-mouse IgG2a chimeric mAb; also called CB7 antibody
binding result [11]: no binding (tested: 800 nM) | Kd [12]: 3.7 nM | koff [12]: 0.00945 s⁻¹ | kon [12]: 2.57e+06 M⁻¹ s⁻¹ | binding result [13]: no binding | binding result [14]: no binding | binding result [15]: binds

B5: CB2 scAb (scFv, not shown: small tags and cut ends)
scFv: QVQLQESGPSLVKPSQTLSLTCTVSGFSLSTNSVGWVRQAPGKAPEWVAGIDTDGEEGFNPVLKSRLSITRDTSKSQVSLSLSNVTSEDTAVYYCGRSYRTDGLAYGYVQAIDYWGPGLLVTISSEGKSSGASGESKVDDQSVLTQPSSVSGSPGQTVSITCSGSYIGSSGVGWFQQLPGSGLRTIIVASDGRPSGVPDRFSMSKSGNTATLTISSLQAEDEADYFCGSSDRTQYTGLFGSGTRLTVLG
notes: scAb
binding result [16]: binds | binding result [17]: binds

B6: 3aG3 scAb (scFv, not shown: small tags and cut ends)
scFv: QVQLQESGPSLVKPSQTLSLTCTVSGFSLSSNGVGWVRQAPGKVPEWVGDISSSGKAYANPALKSRLSITRDTAKTQVFLSLSSVTTEDTAVYYCVRCRDGGVSYGYDIDYWGPGLLVTVSSEGKSSGASGESKVDDQAVLTQPPSVSGSPGQRVSITCSGSSSNIGGGNYLSWFQQVPGSAPKLLIYGATSRASGVPDRFSGSRSGNTATLTISSLQAEDEADYYCASFDTSSGGIFGAGTRLTVLG
notes: scAb
EC50 (read off the curve) [18]: ~1 µg/mL | EC50 (read off the curve) [19]: ~0.5 µg/mL | Kd [2]: 6.1 nM | koff [2]: 0.000387 s⁻¹ | kon [2]: 62900 M⁻¹ s⁻¹

B7: NS1G7 scAb (scFv, not shown: small tags and cut ends)
scFv: QVQLQESGPSLVKPSQTLSLTCTVSGFSLTSYGVGWVRQAPGKTLEWISSISSGGTTFYNPALKSRLSITRDTSESQVSLSLSSVTTEDTAVYYCTRDVHIYYNDYGAAYGDRDYWGPGLLVTVSSEGKSSGASGESKVDDQAVVTQPPSVSGSPGQRVSITCSGSSSNIGGGNYVSWYQQLPGSGLRTLIYGTTSRASGVPDRFSGSGSGNTATLTISSLQAEDEADYYCASYDTNSGSVFGSGTRLTVLG
notes: scAb
binding result [20]: binds | binding result [21]: binds | binding result [22]: binds | binding result [23]: binds | binding result [16]: binds
